Experimental data: the PETadex activity labels

Substrate: BHET
Settings: 120 h

Protein | plate clearing
unnamed (protein) MNALSWTPSPTPNPDPTPDPTPCQGDCDFTRGPNPTLSSVATMGPYSVSTQSVSSSVSGFGGGTIHFPTNTAGTMGAIAVAPGFLSPESSIKWWGPRLASHGFVVITIATNSVFDQPNSRETQISRALDYVINQSNSSNSAISGMVDNTRVGAMGWSMGGGGALRLASGDRLSAAIPLAPWHQGSNSFNQLETPTLIIACENDVVAPVNNHASPFYNAIPSTTDKALLEINNGAHSCANGGGTNGGLLTKYGVSWMKRFIDNDLRYDQFLCGPDHAANNAVSEYRGTCNY | not clears the plate
unnamed (protein) MKITAHKTARGVANFAKASLFVAALAVTSLANAQYQKGPDPTVSALERNGSFATRSTTVSRLSASGFGGGTIYYPTASGSYGAIAVSPGFTAYQSSISWIGERLSSHGFVVITIDTITTSDQPESRGNQLKAALDKVVSLSRTSSSPLYNKVDASRLGVAGHSMGGGGTLAAARDNPSYKAAVPLAPWHTTKSWSRVSVPTLIIGGSTDAIAGVALHSIPFYTSLPSSTKKAYMELSGEGHFYPQLPSNYPIVGRYMISWFKRFMDSDTRYSPFLCGAQHQADLRLFGPFSDYRENCPY | not clears the plate
unnamed (protein) MFDDMNHTTQSKFSRLLQVSLATSALALSLGVQAQQTGADPTTASIEQAGPLAVANVKVATPSGYGSGTVYYPTTGSAYGLVSVTPGFTEGQSAINWLGPLLASHGFVVVTIGTKTILDVPTNRAKQMMAALAQVTALSATKTSPFAGKVDASRLAVMGHSMGGGGSLDAARDNPNLKASIPLAPWETTKDYSKTTVPTLIVSCESDAIAPVKDHANKFYDSFTPTLTKALLEMKGASHFCTNSSANAATKTLIGKYSISWLKRFVDGDTRYSPFLCGAPHQADLAGSLISTYKENCPY | not clears the plate
unnamed (protein) MRTRGTRPLRRLAAIFLLALVIAACDTKGPDPTEQILTASSGPFGVATLAVPSSAGFGGGTIYYPTGVEGPFAVISVTPGFTETAASLDWGPRLASHGFVAIVINTSNIFEDPTTRSNEQRQALTYAAAQSDSASSPIHGLVDGNRRGVTGHSMGGGGTLISAQADPAIRAAVPLAPWNGSPTFSGITVPTLFIACQNDVIAPVANHASPMYNSIPASTHKSYLSIAGGDHFCANAASGGSGQVGKFVVAFFKRFLDGDTRYDPWVCGASKPAVTSVINEVRSTCPF | not clears the plate
unnamed (protein) MKTSRTRRLALAAAALLLSVAAQAQSSNPYQRGPDPTAASLEASSGPFAVSTTTVSSASGFGGGTIYYPTNTEGPFAAIAVVPGFTGTQSSISWWGPRLASHGFVVITIDTNSTFDQPDSRATQLMAALNYVVSQSNTSSSPIYGKVDSNRLGVMGHSMGGGGTLIAARDNPTLKAAIPLAPWNSSTNFSSVTVPTLIIACENDTVAPVSSHASPFYNSIPSSTDKAYLEINGGDHFCANSGNSNKAILGKYGVAWMKRFLDNDTRYDPFLCGAPHQADGSAISEYRDNCPY | clears the plate (z > 3 vs empty vector)
unnamed (protein) MVRGVRAALRLASLVAVAVLPACGSGGGSSPTPASTPMATPIAPTPAPTLAPAPPTSPPFTRGPAPSTSALEATEGPFAVAQLTIDRTAAAGYGAGTVSYPTDTREGPFGAIAVSPGYTGVQRSMQWFGPRLASHGFVVIVIDTLSLTNNAEARAAQLIAALNQLIALSGTSGHPLQGKVDGNRLGVIGHSYGGGGALVAARDNPALKAAVPLAPFYESNDFSRLTVPTLVVGCQRDTVAAVSQRAIPMYESIPASVSKAYLELAGGDHLCVETGNGNKAIQGKYTVAWMKRFLDDDVRYSPYLCGSPHQADLAGDAVSAYRETCPY | not clears the plate
unnamed (protein) MTIRPFVRNAVLAAGLLVGAASAQAQVAVFQENFSNGLGAFTASGTVSTGTGAARLQGCYGCTDGQIVSSAISTQGFTNLSLSFDRVTSGLYIGESGTAEFSVDGTNWTVVESTRVTSPGRVTFDLPASAAGQAALRLRFRIDARLSSETYTVDNVELTGTVGDTGGGTPGANPYAKGPDPTVALLEAGTGPFTYTRTTVSRTAASGYGGGTIYHPTGVAGPFGAIAISPGYTAYQSSISWLGERLASHGFVVITIDTFTTSDQPSSRATQLMAALRQLVAYGNTSSHPIYGKVDPNRLGVMGHSMGGGGSLIAARDNPSLKAAVPLTPWNTSSNFTAVQVPTLVVGCEADTVAPVAQHASPFYNNIPSTTKKAYLELANASHFCPVTGNGYTRLLGKYGVAWMKRFVDNDTRYSPFLCGAPHRADLSNGQLSAYRENCPY | clears the plate (z > 3 vs empty vector)
unnamed (protein) MNSHRASRLVRAALAAGALLLSAAASAQTNPYQRGPNPTASSLEASRGPFSVRSFTVSRPSGYGAGTVYYPTNAGGTVGAIAIVPGFTARQSSINWWGPRLASHGFVVITIDTNSTLDQPSSRSSQQMAALRQVATLSGTSSSPIYNKVDTSRLGVMGWSMGGGGSLISARNNPSLKAAAPQAPWNSSTNFSSVTVPTLIIACENDTIAPVNSHASPFYNSMSRNPKQFLEINGGSHSCANSGNSNQALLGKKGVAWMKRFMDNDTRYTSFACSNPNSTRVSDFRVASCS | not clears the plate
unnamed (protein) MKHDRRYRWGRLAGLAALLLAPVAAQAQTVLFSEDFEGGLGAFSAGGNVFTATVFNGTSGVRLRGGSSDGVITSPPISTEGFSEVTLFFERTTDGSLDFGEFGIAEVSVDGGATFAVVEATQGGPAAVSIPLGAAAADQAAVVLRFRIAASSFFEDIEVDNVVLEGVGSGDPGPGPDPDPGPDPDPDPDPEPEPDNPFARGPDPTEATLEASSGPFAVDSFRPSSTPGFGAGTIWYPSGTNEGPFAAIAVAPGFVGGESTIDWLGSRLASHGFVVITISTSSLFDFPDSRASQLLAALDIVIAESNGSSPISGLVDPDRTGLSGHSMGGGGSLIATEDHPSIDAVVPLAPWNPSTNFSAIDQPTLIVACENDTVAPVNQHASPMYESISSSVDKAFLEIDGADHFCVNSGNAQQDTLGKFIVSWMKRFLDQDTRYDPFLCGPDHEADPDISEFRDTCPF | not clears the plate
unnamed (protein) MTLTSTLRRQTRTTATATVLAAAAALALCAAPASAQQTGPNPTSSSLNATSGPFAVSSVSVVAPTGFGGGTIYYPTTAGQYGVVAISPGFTATESSIAWLGRRMATHGFVVVTINTLTTLDQPASRATQLMAALNHVVNSASSTVRSRVDPNRRAVAGHSMGGGGALIAAENNPGLKAALPLTPWNLTTNFSDVQVPTLIVGADGDTVAPAAIHARPFYASLSSSVRKAYAELNFSTHFTPNTTNTPIGRYGVTWMKRFVDGDTRYSTFLCGAEHNAYNTALVFERYSQNCPY | not clears the plate
unnamed (protein) MSAADRMCPFRTLLMLLGLSMMARPTRASMRRRGRHSSITTGDSMTHIAIGLRHWAQVAVLLASVAMSALAAAQNNPYAKGPDRTTADLEAELGSFAVASASIPRANASGFGGGTIYYPTASGSCGAISISPGYTATQVNIAWLGPRLASRGFVVITIDTFTTSDLPDSRATQLQAALNQAVSLSQTAGHVIYGKVDARRLAVAGDSLGGGGALLAGLNNPMLKAAVGLVPYSYTQNFSTEQVPTLMIGGQKDTTATPSKHAIAFYNSIPSTTDKAYMELAGADHYLPHRTQYFPVIGRYMIAWYKRFVDNDTRYSPFLCGAIQQADVANTALVSKYLQNCSY | not clears the plate
unnamed (protein) MNKSILEKMVVGTSALLFSLSAFSFTPDPTPDPDPEPEPCQGECDFTRGPAPTSSYLEASSGPYSVDTVGVSRSVSGFGGGTIYYPTSTSGTMGAIAIVPGFLAGESSISWWGPRLASHGFVVITIATNSTFDQPASRSTQLSRALDYVVSQSNSNSSPISGKVDSTRLGAMGWSMGGGGALRLASGNRLAAAIPLAPWNTGSNSFNQIDTPTLIFACENDTTARVGTHASPFYNRIPASTDKAYLEINNGSHSCANGGGSNGGLLGKYGVSWMKRFIDEDTRYSQFLCGPNHEANSAISEYRETCNY | not clears the plate
unnamed (protein) MMKSIIARLAIGTSVLLFSVSAFSFTPGPTPDPDPDPNPNPCEVDCDFSRGPNPTASYLEAASGPYTVRTMRVSSSVTGFGGGTIHYPTGTTGKMGAIAVVPGFLAGESSISWWGPRLASHGFVVITIATNSAFDQPASREAQLGRALDYVIAQSNASGNAISGMVDSSRVGAMGWSMGGGGTLRIASGGRLSAAIPLAPWHTGSNDFNQISTPTMIIACENDGTAPVNSHASPFYNRIPASTDKAYLEINNGGHSCANGGGSNGGLLGKYGVSWMKRFIDKDTRYNQFLCGPNHASNSAISEYRETCNY | not clears the plate
unnamed (protein) MKSTQGSKFALSLLTAGTLLFSMSALGFNAPDPDPQPDPDPCEGDCGYTRGPDPTTSLLEASSGPYSVRTDSVSSRVSGFSGGTIYYPTGTSGRMGAIVVAPGFLSPESSISWWGPRLASHGFVVITVQINSGYDQPASRQAQMDAALDHVISESNSSSSPISGMVDSSRLGAMGWSMGGGGALRMAAGDRLSAAIPLAPWHSGRDNFDQIRTPTLIFACENDSVAPVRSHASPFYNDIPNSTSKAFFEINGGSHTCANGGRSNGDLLGRIGVSWMKRHIDQDTRYNQFLCGPNHESDGDISEYRGTCPL | not clears the plate
